Reference: patent US20160058848A1

Key:
[1] = molecular target: T1, human corin variant T555I/Q568P, Q9Y5Q5
T1 chain: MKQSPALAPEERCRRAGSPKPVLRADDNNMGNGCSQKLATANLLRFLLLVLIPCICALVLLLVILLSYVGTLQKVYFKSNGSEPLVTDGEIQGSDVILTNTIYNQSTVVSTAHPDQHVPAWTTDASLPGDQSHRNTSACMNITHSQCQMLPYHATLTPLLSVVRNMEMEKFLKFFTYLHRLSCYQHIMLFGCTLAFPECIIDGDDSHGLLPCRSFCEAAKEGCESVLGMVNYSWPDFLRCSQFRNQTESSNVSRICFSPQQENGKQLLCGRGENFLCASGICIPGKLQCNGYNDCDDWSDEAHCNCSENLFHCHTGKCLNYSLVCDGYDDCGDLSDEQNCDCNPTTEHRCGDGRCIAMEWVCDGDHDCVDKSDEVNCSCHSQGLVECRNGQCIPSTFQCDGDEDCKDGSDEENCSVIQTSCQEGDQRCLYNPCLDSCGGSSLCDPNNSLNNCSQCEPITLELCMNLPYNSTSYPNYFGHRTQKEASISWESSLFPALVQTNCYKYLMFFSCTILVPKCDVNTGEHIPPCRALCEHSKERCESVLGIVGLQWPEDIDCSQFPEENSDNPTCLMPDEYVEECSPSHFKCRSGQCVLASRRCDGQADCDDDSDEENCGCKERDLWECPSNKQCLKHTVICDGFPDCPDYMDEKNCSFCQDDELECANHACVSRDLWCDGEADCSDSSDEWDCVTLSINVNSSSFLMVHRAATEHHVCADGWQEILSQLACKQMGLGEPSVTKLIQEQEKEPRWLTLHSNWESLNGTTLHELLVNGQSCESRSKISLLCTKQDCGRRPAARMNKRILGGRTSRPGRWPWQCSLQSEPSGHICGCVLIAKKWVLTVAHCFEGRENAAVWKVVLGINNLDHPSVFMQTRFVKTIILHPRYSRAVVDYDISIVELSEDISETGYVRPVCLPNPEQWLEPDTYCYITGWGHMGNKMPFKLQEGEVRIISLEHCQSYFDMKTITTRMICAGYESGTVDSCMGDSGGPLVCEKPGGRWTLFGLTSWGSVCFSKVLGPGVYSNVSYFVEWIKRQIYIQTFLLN

[2] = molecular target: T2, recombinant human corin wild-type (WT), Q9Y5Q5
T2 chain: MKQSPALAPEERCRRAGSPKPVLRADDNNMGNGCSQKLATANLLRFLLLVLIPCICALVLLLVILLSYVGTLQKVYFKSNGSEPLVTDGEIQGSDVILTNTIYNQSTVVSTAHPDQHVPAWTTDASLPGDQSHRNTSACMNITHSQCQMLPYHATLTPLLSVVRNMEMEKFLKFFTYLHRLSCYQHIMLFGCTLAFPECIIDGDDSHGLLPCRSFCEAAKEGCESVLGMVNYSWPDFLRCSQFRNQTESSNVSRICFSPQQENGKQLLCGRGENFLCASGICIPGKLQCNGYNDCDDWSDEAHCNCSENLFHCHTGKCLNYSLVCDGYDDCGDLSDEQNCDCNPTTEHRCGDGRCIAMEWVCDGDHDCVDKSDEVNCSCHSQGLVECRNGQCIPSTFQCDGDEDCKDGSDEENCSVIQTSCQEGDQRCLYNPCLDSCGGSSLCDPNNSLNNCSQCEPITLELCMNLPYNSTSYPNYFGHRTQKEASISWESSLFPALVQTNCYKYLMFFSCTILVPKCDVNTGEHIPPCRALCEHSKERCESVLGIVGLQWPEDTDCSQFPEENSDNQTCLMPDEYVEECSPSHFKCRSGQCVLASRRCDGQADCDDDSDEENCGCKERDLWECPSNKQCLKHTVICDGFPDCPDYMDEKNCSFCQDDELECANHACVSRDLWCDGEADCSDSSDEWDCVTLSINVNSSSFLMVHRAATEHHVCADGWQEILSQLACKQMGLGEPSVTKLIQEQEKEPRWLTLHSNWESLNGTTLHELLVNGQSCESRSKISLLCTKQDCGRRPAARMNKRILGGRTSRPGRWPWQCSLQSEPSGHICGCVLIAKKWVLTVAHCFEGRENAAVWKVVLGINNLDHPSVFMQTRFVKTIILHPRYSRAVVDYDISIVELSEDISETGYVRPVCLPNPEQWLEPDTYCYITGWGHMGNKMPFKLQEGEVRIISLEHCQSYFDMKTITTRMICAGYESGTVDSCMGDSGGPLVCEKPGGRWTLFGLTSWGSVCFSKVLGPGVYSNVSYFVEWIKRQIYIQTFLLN

[3] = molecular target: human corin mutant K317E (human) (UniProt Q9Y5Q5); experiment: cell-based or functional assay
[4] = molecular target: human corin mutant R539C (human) (UniProt Q9Y5Q5); experiment: cell-based or functional assay
[5] = molecular target: human corin mutant S472G (human) (UniProt Q9Y5Q5); experiment: cell-based or functional assay

- reduction in PCSK6-mediated corin activation compared with WT corin (Western blot, densitometry) (% reduction vs WT corin) [3]: 39
- reduction in PCSK6-mediated corin activation compared with WT corin (Western blot, densitometry) (% reduction vs WT corin) [4]: 62
- reduction in PCSK6-mediated corin activation compared with WT corin (Western blot, densitometry) (% reduction vs WT corin) [5]: 99
B1: recombinant human proprotein convertase subtilisin/kexin-6 (PCSK6) with a C-terminal flag tag (protein)
chain: QVRSDPQALYFNDPIWSNMWYLHCGDKNSRCRSEMNVQAAWKRGYTGKNVVVTILDDGIERNHPDLAPNYDSYASYDVNGNDYDPSPRYDASNENKHGTRCAGEVAASANNSYCIVGIAYNAKIGGIRMLDGDVTDVVEAKSLGIRPNYIDIYSASWGPDDDGKTVDGPGRLAKQAFEYGIKKGRQGLGSIFVWASGNGGREGDYCSCDGYTNSIYTISVSSATENGYKPWYLEECASTLATTYSSGAFYERKIVTTDLRQRCTDGHTGTSVSAPMVAGIIALALEANSQLTWRDVQHLLVKTSRPAHLKASDWKVNGAGHKVSHFYGFGLVDAEALVVEAKKWTAVPSQHMCVAASDKRPRSIPLVQVLRTTALTSACAEHSDQRVVYLEHVVVRTSISHPRRGDLQIYLVSPSGTKSQLLAKRLLDLSNEGFTNWEFMTVHCWGEKAEGQWTLEIQDLPSQVRNPEKQGKLKEWSLILYGTAEHPYHTFSAHQSRSRMLELSAPELEPPKAALSPSQVEVPEDEEDYTAQSTPGSANILQTSVCHPECGDKGCDGPNADQCLNCVHFSLGSVKTSRKCVSVCPLGYFGDTAARRCRRCHKGCETCSSRAATQCLSCRRGFYHHQEMNTCVTLCPAGFYADESQKNCLKCHPSCKKCVDEPEKCTVCKEGFSLARGSCIPDCEPGTYFDSELIRCGECHHTCGTCVGPGREECIHCAKNFHFHDWKCVPACGEGFYPEEMPGLPHKVCRRCDENCLSCAGSSRNCSRCKTGFTQLGTSCITNHTCSNADETFCEMVKSNRLCERKLFIQFCCRTCLLAG
- PCSK6-mediated activation cleavage (Western blot, densitometry) [1]: PCSK6-mediated activation cleavage was detected in corin WT and variants T555I or Q568P, but not variant T555I/Q568P
- PCSK6-mediated activation cleavage (Western blot, densitometry) [2]: PCSK6-mediated activation cleavage was detected in corin WT and variants T555I or Q568P, but not variant T555I/Q568P
